Results on 2 molecules are retold here after publication doi:10.1101/2025.02.08.637281 (bioRxiv, 2025).

For experiment [1], the target named is T1, ASK2, SKP1-like protein of Arabidopsis thaliana (Arabidopsis thaliana, UniProt Q9FHW7 1-171).
T1 sequence (looked up): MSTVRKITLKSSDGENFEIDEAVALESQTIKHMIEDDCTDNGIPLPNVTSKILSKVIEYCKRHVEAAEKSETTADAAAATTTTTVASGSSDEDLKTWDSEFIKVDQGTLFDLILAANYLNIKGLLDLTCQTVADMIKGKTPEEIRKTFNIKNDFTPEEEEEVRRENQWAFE
Description: SEC.

The target of experiment [2] is T2, REPRESSOR OF GA1-3 (RGA), full-length, Arabidopsis thaliana DELLA protein (Arabidopsis thaliana, UniProt Q9SLH3 1-587).
T2 sequence (looked up): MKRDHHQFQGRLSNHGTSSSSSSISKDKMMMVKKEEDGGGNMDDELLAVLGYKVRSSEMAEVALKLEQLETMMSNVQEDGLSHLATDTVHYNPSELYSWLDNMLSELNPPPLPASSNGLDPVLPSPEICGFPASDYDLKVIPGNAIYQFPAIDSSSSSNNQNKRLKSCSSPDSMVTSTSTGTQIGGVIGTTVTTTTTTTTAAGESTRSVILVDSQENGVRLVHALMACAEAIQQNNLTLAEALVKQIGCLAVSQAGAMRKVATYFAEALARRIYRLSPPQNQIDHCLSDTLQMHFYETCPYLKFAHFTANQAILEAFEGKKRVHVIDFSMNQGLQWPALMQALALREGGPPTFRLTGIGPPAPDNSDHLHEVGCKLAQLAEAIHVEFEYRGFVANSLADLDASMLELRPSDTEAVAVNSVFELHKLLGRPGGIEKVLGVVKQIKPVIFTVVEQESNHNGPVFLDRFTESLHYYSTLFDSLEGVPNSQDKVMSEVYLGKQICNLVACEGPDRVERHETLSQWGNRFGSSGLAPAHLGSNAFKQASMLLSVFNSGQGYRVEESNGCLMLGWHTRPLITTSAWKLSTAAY
The experiment in a line: SEC-MALS.

B1: SLEEPY 1 (SLY1), F-box protein (natural protein, Arabidopsis thaliana, UniProt Q9STX3 1-151, looked up)
chain: MKRSTTDSDLAGDAHNETNKKMKSTEEEEIGFSNLDENLVYEVLKHVDAKTLAMSSCVSKIWHKTAQDERLWELICTRHWTNIGCGQNQLRSVVLALGGFRRLHSLYLWPLSKPNPRARFGKDELKLTLSLLSIRYYEKMSFTKRPLPESK
Turning to B1, the binding result in experiment [1] is given as “binds”.

B2: GA … DWARF1A (GID1A), gibberellin receptor, GA3-bound (receptor, Arabidopsis thaliana, UniProt Q9MAA7 1-345, looked up)
chain: MAASDEVNLIESRTVVPLNTWVLISNFKVAYNILRRPDGTFNRHLAEYLDRKVTANANPVDGVFSFDVLIDRRINLLSRVYRPAYADQEQPPSILDLEKPVDGDIVPVILFFHGGSFAHSSANSAIYDTLCRRLVGLCKCVVVSVNYRRAPENPYPCAYDDGWIALNWVNSRSWLKSKKDSKVHIFLAGDSSGGNIAHNVALRAGESGIDVLGNILLNPMFGGNERTESEKSLDGKYFVTVRDRDWYWKAFLPEGEDREHPACNPFSPRGKSLEGVSFPKSLVVVAGLDLIRDWQLAYAEGLKKAGQEVKLMHLEKATVGFYLLPNNNHFHNVMDEISAFVNAEC
As to B2, the binding result in experiment [2] is “binds”.
